Molecular target: Cdk2/cyclin A complex (Cdk2 phosphorylated at threonine 160 with truncated cyclin A) (human) (UniProt P24941)

IC50 of inhibition of Cdk2/cyclin A kinase activity (data not shown; 25% residual kinase activity even at peptide concentrations as high as 17 µM): 0.125 µM
Substance: peptide corresponding to the Cdk binding domain of p27
